The target in the assay is IgE antibodies of four Pru p 7 reactive human sera. As to the kind of experiment: ImmunoCAP IgE inhibition, inhibitor at 20 ug/mL in solution, rPru p 7 on solid phase, against dilution buffer control.

B1: recombinant Cup s GRPb (protein)
chain: AQIDCDKECNRRCSKASLHDRCLKYCGICCEKCHCVPPGTAGNEDVCPCYAHLKNSKGGHKCP
B1 registered a percent inhibition of IgE binding to rPru p 7 (fourth serum) of 80%.

The record behind these values is US20220241406A1.
